This note sets out measurements from patent US20250382376A1 (FUDAN UNIVERSITY, published 2025).

Assay [1] concerns the target T1, extracellular domain of human CD73 protein, C-terminus polyhistidine-tagged (human, UniProt P21589 27-547).
T1 construct: also the immunogen; also called CD73-ECD; human CD73-ECD
T1 sequence: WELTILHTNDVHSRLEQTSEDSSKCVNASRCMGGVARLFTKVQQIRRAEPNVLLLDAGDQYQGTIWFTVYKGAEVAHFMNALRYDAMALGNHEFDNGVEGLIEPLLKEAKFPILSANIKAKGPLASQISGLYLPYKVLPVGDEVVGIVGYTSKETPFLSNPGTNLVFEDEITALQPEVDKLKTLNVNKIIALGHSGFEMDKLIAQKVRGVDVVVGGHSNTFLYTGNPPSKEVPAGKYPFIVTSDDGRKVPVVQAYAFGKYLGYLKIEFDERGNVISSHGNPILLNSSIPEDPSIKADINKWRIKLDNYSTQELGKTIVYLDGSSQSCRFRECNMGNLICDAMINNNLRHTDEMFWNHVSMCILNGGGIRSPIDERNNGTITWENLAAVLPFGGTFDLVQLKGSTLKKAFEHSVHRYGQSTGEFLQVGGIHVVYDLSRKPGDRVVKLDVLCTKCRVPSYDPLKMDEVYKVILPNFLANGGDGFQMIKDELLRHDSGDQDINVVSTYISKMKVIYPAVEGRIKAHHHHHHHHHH
The experiment in a line: ForteBio Octet (the filing calls it SPR), by the method of Example 2 according to the text; sheet prints 'Loading Sample ID: FDYKSD-02-His'; traces labelled 25, 12.5, 6.25, 3.13. In general terms: In BLI a coated tip is dipped into the sample, and binding shifts an interference pattern.

The target of assay [2] is T1, extracellular domain of human CD73 …. The experiment in a line: ELISA on CD73-ECD, 4 µL supernatant of antibody expression, first of two readings; PBS 0.19, 0.18. The protocol:
(§1) The CD73 protein extracellular region (CD73-ECD) was diluted to 1 μg/mL using the coating solution, and an ELISA plate was coated at 100 μL/well at 4° C. overnight. Excess antigens were washed away, and the plate was blocked with 1% BSA at room temperature for 2 hours. Then, 5-fold gradient dilutions of each monoclonal antibody were added at 100 μL/well and incubated at room temperature for 1 hour. Unbound antibodies were washed away, and an appropriate concentration of Staphylococcal protein A labeled with horseradish peroxidase was added at 100 μL/well and incubated at room temperature for 0.5 hours. Unbound secondary antibodies were washed away, and TMB color development solution was added to react for about 15 minutes. 1M HCL was added at 50 µL/well to terminate the color development reaction, and then the absorbance was measured at 450 nm and the data was analyzed.
(§2) CD73 antigen ELISA binding affinity test was performed according to the method of Example 3.
(ELISA stands for enzyme-linked immunosorbent assay.)

The target is the same in assay [3]. The experiment in a line: ELISA on CD73-ECD, 20 µL supernatant of antibody expression, first of two readings; PBS 0.19, 0.18. The protocol:
as §1, §2

B1: chimeric nanobody 3-D7 (Fc fusion)
VHH: QRQLVESGGGLVQPGGSLRLSCAASGFLLDYYVIGWFRQAPGKEREGVSCISGSDRSTYYADSVKGRFTISRDNAKNTVYLQMNSLKPEDTAVYFCAADPSPVTVQAMCLPRFPVPYWGQGTQVTVST
notes: Human-alpaca chimeric antibody (VHH on hIgG1 Fc); Only the VHH is tied to the tested molecule; 37-39 exist for 3-D7-FC1/FC2/FC3; also called original antibody 3-D7
B1: in assay [1], the koff (usually the rate constant with which the complex falls apart) was found to be 0.000588 s⁻¹ and the kon (usually the rate constant with which the complex forms) was 1.25e+06 M⁻¹ s⁻¹.

B2: chimeric nanobody 5-E11 (Fc fusion)
VHH: ALQLVESGGGLVQPGGSLRLSCEVSGFTLDYYNIGWFRQAPGKEREGVSCSSNSGGSTYYADSVKGRFTISRDNAKNTVYLQMNSLKPEDTGVYYCAAYRGWHPSLDARVYDYWGQGTEVTVSS
notes: Human-alpaca chimeric antibody (VHH on hIgG1 Fc); Only the VHH is tied to the tested molecule; also called original antibody 5-E11
B2: the “ELISA reading (not named on the sheet)” value in assay [2] stood at 4.23; in assay [3], 4.19.
